Data as given in the supplement of paper PMC9233669.
Fewer inactive variants are shown than the library holds.

Assays:
[1] = system: biotinyl-Phe-oxazolone; test: self-aminoacylation, catalytic enhancement (BFO) (fold over background); higher = more active; k-Seq, kA / k0A0; sequences stand for … in GGGAAUGGAUCCACAUCUACGAAUUC…UUCACUGCAGACUUGACGAAGCUG
How it was run: (§1)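 The uncatalyzed rate is the low-activity peak of a bimodal Gaussian fit, and catalytic enhancement is median kA divided by it. The kA values came from pseudo-first-order fits, with 1000 bootstraps, of per-sequence fraction reacted measured by streptavidin capture, triplicate qPCR and Illumina sequencing. Mutagenized RNA pools with a 21-nt variable region (0.43 μM) were reacted with each biotinyl-aminoacyl-oxazolone at 2–1250 μM in 50 μL HEPES/NaCl/KCl/MgCl2/CaCl2 buffer with 5% acetonitrile, pH 6.9–7.0, for 90 minutes at room temperature.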

[2] = system: biotinyl-Ile-oxazolone; test: self-aminoacylation, catalytic enhancement (BIO) (fold over background); higher = more active; k-Seq, kA / k0A0; sequences stand for … in GGGAAUGGAUCCACAUCUACGAAUUC…UUCACUGCAGACUUGACGAAGCUG
How it was run: as §1

[3] = system: biotinyl-Met-oxazolone; test: self-aminoacylation, catalytic enhancement (BMO) (fold over background); higher = more active; k-Seq, kA / k0A0; sequences stand for … in GGGAAUGGAUCCACAUCUACGAAUUC…UUCACUGCAGACUUGACGAAGCUG
How it was run: as §1

[4] = system: biotinyl-Val-oxazolone; test: self-aminoacylation, catalytic enhancement (BVO) (fold over background); higher = more active; k-Seq, kA / k0A0; sequences stand for … in GGGAAUGGAUCCACAUCUACGAAUUC…UUCACUGCAGACUUGACGAAGCUG
How it was run: as §1

[5] = system: biotinyl-Leu-oxazolone; test: self-aminoacylation, catalytic enhancement (BLO) (fold over background); higher = more active; k-Seq, kA / k0A0; sequences stand for … in GGGAAUGGAUCCACAUCUACGAAUUC…UUCACUGCAGACUUGACGAAGCUG
How it was run: as §1

[6] = system: biotinyl-Trp-oxazolone; test: self-aminoacylation, catalytic enhancement (BWO) (fold over background); higher = more active; k-Seq, kA / k0A0; sequences stand for … in GGGAAUGGAUCCACAUCUACGAAUUC…UUCACUGCAGACUUGACGAAGCUG
How it was run: as §1

Row | Sequence | self-aminoacylation [1] | self-aminoacylation [2] | self-aminoacylation [3] | self-aminoacylation [4] | self-aminoacylation [5] | self-aminoacylation [6]
1 | AUUCAACAAGGUCAUCGGGUG [Fam2.2 aminoacylation ribozyme variant] | 57.7 | 4.09 | 7.02 | 3.32 | 7.96 | 5.71
2 | AUUCAACUAGGGCAUCGGGUG [Fam2.2 aminoacylation ribozyme variant] | 22.4 | 2.7 | 3.16 | 2.88 | 4.3 | 2.99
3 | AUUCAACUAGGUCAUCGCGUG [Fam2.2 aminoacylation ribozyme variant] | 65.2 | 5.91 | 9.12 | 5.81 | 13.6 | 9.5
4 | AUUCAACUAGGUCAUCGGGUA [Fam2.2 aminoacylation ribozyme variant] | 7.29 | 1.78 | 2.01 | 2.19 | 2.16 | 2.89
5 | AUUCAACUAGGUCAUCGGGUC [Fam2.2 aminoacylation ribozyme variant] | 1.77 | 1.02 | 1.14 | 0.979 | 1.15 | 1.22
6 | AUUCAACUAGGUCAUCGGGUU [Fam2.2 aminoacylation ribozyme variant] | 4.65 | 1.5 | 1.91 | 1.66 | 1.95 | 1.8
7 | AUUCAACUAGGUCAUCGGUUG [Fam2.2 aminoacylation ribozyme variant] | 0.677 | 0.952 | 0.933 | 0.963 | 0.889 | 0.843
8 | AUUCAACUAGGUCCUCGGGUG [Fam2.2 aminoacylation ribozyme variant] | 35.7 | 3.44 | 5.22 | 3.32 | 7.66 | 5.55
9 | AUUCAAUUAGGUCAUCGGGUG [Fam2.2 aminoacylation ribozyme variant] | 42.1 | 3.56 | 6 | 3.44 | 7.25 | 5.33
10 | AUUCACAUAGGACAUCGGGUG [Fam2.2 aminoacylation ribozyme variant] | 17.7 | 2.84 | 3.84 | 3.22 | 4.24 | 3.93
11 | AUUCACAUAGGUCAACGGGUG [Fam2.2 aminoacylation ribozyme variant] | 28.8 | 2.85 | 4.31 | 2.81 | 5.9 | 4.39
12 | AUUCACAUAGGUCAUAGGGUG [Fam2.2 aminoacylation ribozyme variant] | 2.85 | 1.55 | 2.17 | 1.54 | 2.3 | 1.66
13 | AUUCACAUAGGUCAUCGGGCG [Fam2.2 aminoacylation ribozyme variant] | 6.68 | 2.05 | 2.5 | 2.33 | 3.11 | 2.3
14 | AUUCACAUAGGUCAUUGGGUG [Fam2.2 aminoacylation ribozyme variant] | 29.1 | 2.74 | 4.35 | 3.23 | 5.11 | 4.51
15 | AUUCACAUAGGUCUUCGGGUG [Fam2.2 aminoacylation ribozyme variant] | 39.4 | 4.26 | 4.21 | 4.59 | 5.35 | 5.51
16 | AUUCACAUAGGUGAUCGGGUG [Fam2.2 aminoacylation ribozyme variant] | 20.5 | 3.05 | 3.4 | 3.14 | 3.56 | 3.79
17 | AUUCACAUAGUUCAUCGGGUG [Fam2.2 aminoacylation ribozyme variant] | 19.2 | 2.27 | 2.76 | 2.3 | 3.48 | 2.42
18 | AUUCACAUGGGUCAUCGGGUG [Fam2.2 aminoacylation ribozyme variant] | 70.4 | 5.6 | 9.66 | 5.96 | 11.6 | 8.84
19 | AUUCACCAAAGUCAUCGGGUG [Fam2.2 aminoacylation ribozyme variant] | 110 | 9.57 | 15.3 | 8.23 | 19.5 | 13.6
20 | AUUCACCAAGGUCACCGGGUG [Fam2.2 aminoacylation ribozyme variant] | 55.5 | 5.1 | 8.25 | 6.12 | 9.86 | 5.09
21 | AUUCACCAAGGUCAUCGAGUG [Fam2.2 aminoacylation ribozyme variant] | 14.4 | 2.27 | 4.1 | 2.23 | 4.52 | 2.57
22 | AUUCACCAAGGUCAUCGGGCG [Fam2.2 aminoacylation ribozyme variant] | 16 | 3.24 | 4.07 | 3.64 | 4.59 | 3.82
23 | AUUCACCAAGGUCUUCGGGUG [Fam2.2 aminoacylation ribozyme variant] | 37.2 | 4.41 | 5.94 | 4.41 | 6.3 | 4.45
24 | AUUCACCCAGGUCAACGGGUG [Fam2.2 aminoacylation ribozyme variant] | 19.7 | 1.96 | 3.24 | 2.53 | 4.29 | 3.81
25 | AUUCACCCAGGUCAUCGGGGG [Fam2.2 aminoacylation ribozyme variant] | 11.7 | 1.86 | 2.1 | 1.6 | 2.17 | 1.92
26 | AUUCACCGAAGUCAUCGGGUG [Fam2.2 aminoacylation ribozyme variant] | 152 | 9.89 | 17.6 | 9.73 | 23.7 | 15.1
